Reference: patent CN115124620A (SHENGHE CHINA BIO PHARMACY CO LTD, dated 2022)

B1: 抗体1 (antibody, V domains shown)
VH: QVQLQQPGAELVKPGASVKLSCKASGYTFTSYWMEWVKLRPGQGFDWIGEINPSNGGTNYNEKFKRKAILTVDKSSSAAYMQLSGLTSEDSAVYYCTIGGDYAWFAYWGQGTLVTVSA
VL: DIKMTQSPSSMYASLGERVTITCKASQDIKSYLSWYQQKPWKSPKTLIFYATSLADGVPSRFSASGSGQDYSLTISSLESDDTATYYCLQHGESPYTFGGGTKLEIK
notes: Mouse hybridoma monoclonal antibody purified on Protein A; also called 鼠源抗NKp30抗体; NKp30 mAb
B2: 抗体4 (antibody, V domains shown)
VH: EVQLVESGGGLVKPGGSLKLSCAASGFTFSDYGMSWIRQTPEKRLEWVASISSGGTYTYYPDSVKGRFTISRDSAKNTLYLQMNSLRSEDTAMYYCARRDGYYSVEYWGQGTSVTVSS
VL: QIVLTQSPAIMSASPGGEVTMTCSASSSVSFMHWYQQKSGTSPKRWIFDTSKLASGVPTRFSGSGSGTSYSLTISSMEAEDAATYYCQQWTTNPPTFGGGTKLEIK
notes: as for B1
B3: 抗体5 (antibody, V domains shown)
VH: VLILKESGGGLVKPGGSLKLSCAASGFAFSSYDMSWVRQTPEKRLEWVATISSGGSYTYYPDSVKGRFTISRDNARNTLYLQMSSLRSEDTALYYCARHFGDHDGYVMDYWGQGTSVIVSS
VL: DIVMTQSPSSLAMSLGQKVTMSCKSSQSLLNSSNQKSNLAWYQQKPGQSPKLLVYFASTRESGVPDRFIGSGSGTDFSLTIRSVQAEDLADYFCQQHYSTPFTFGSGTKLEIK
notes: as for B1
B4: 抗体6 (antibody, V domains shown)
VH: QVQLQQSGAELVRPGVSVKISCKGSGYTFTDYAMHWVKQSHAKSLEWIGIISTYYGDASYNQKFKGKATMTVDKSSSTAYMELARLTSEDSAIYYCARDYDNRYAAMDYWGQGTSVTVSS
VL: DIVMTQAAFSNPVTLGTSASISCRSSKSLLHSNGITYLYWYLQKPGQSPQLLIYQMSNLASGVPDRFSSSGSGTDFTLRISRVEAEDVGVYYCAQNLELPYTFGGGTKLEIK
notes: as for B1
B5: 抗体2 (antibody, V domains shown)
VH: EVQLQQFGAELVKPGASVKISCKASGYTFTDYNMDWVKQSHGKSLEWIAYINPNYEITTYNQKFKGKATLTVDKSSSTAYMELRSLTSEDTAVYYCARGRGGYDPAMDYWGQGTSVTVSS
VL: SIVMTQTPKFLLVSAGDRVTITCKASQSVSNDVTWSQQKPGQSPKLLIYYASNRYTGVPDRFTGSGYGTDFTFTISTVQAEDLAVYLCQQDNSTPPTFGAGTKLELK
notes: as for B1
B6: 抗体3 (antibody, V domains shown)
VH: QGQLQQSGAEVMKPGASVKISCKANGHTFGSYWIEWIKQRPGHGLEWIGEILPGSGSKKYNEKFEGKATFTEETSSNTAYMELTSLTSEDSAVYYCSRGGYYGSRFAYWGQGTLVTVSA
VL: DVVLTQTPLSLPVNIGDQASISCKSTKSLLNSDGFTYLDWYLQKPGQSPQLLIYLVSNRFSGVPDRFSGSGSGTDFTLKISRVEAEDLGVYYCFQSNYLPFTFGSGTKLEIK
notes: as for B1

Target: T1, 人NKp30-his蛋白(KACTUS;Cat:NKP-HM430) (human, UniProt O14931 19-135)
T1 construct: Bought protein; Molar concentration was calculated with 35 kDa; also called 重组人NKp30-his; 人NKp30蛋白; not shown: his tag
T1 sequence (looked up): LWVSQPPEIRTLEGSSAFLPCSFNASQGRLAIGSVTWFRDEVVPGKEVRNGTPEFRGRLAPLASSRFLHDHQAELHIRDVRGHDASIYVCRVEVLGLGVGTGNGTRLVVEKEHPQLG
Assay: BLI (Octet Red96e), antibody captured on sensor, 100 nM human NKp30-his in solution, 1:1 model

Point of comparison: B1, Kd 0.439 nM. Against it:
- B2 — 1.9-fold higher, 0.846 nM
- B3 — 1.9-fold higher, 0.821 nM
- B4 — 12-fold higher, 5.43 nM
- B5 — 2.2-fold lower, 0.197 nM
- B6 — 4.6-fold higher, 2.03 nM

Point of comparison: B3, koff 0.000552 s⁻¹. Against it:
- B1 — within 1.5-fold, 0.000708 s⁻¹
- B2 — 1.6-fold lower, 0.000338 s⁻¹
- B4 — 11-fold higher, 0.00585 s⁻¹
- B5 — 2.6-fold lower, 0.000212 s⁻¹
- B6 — 3.5-fold higher, 0.00194 s⁻¹

Point of comparison: B2, kon 399000 M⁻¹ s⁻¹. Against it:
- B1 — 4-fold higher, 1.61e+06 M⁻¹ s⁻¹
- B3 — 1.7-fold higher, 673000 M⁻¹ s⁻¹
- B4 — 2.7-fold higher, 1.08e+06 M⁻¹ s⁻¹
- B5 — 2.7-fold higher, 1.08e+06 M⁻¹ s⁻¹
- B6 — 2.4-fold higher, 959000 M⁻¹ s⁻¹
